Assay results as given in patent US11260115B1, “Peptides and combination of peptides for use in immunotherapy against CLL and other cancers” (immatics biotechnologies GmbH, priority 2015, dated 2022).

biological target: HLA-A*02:01 (Homo sapiens, UniProt P04439, D140Y/D185E/D98H/E176V/E277Q/G131W/G231S/I119V/I121R/I166T/I218V/L300P/L318F/N151K/N90K/P208A/P217A/Q86G/Q94H/R138H/R169H/T345S); test: MHC binding assay (UV-ligand exchange, β2m ELISA, peptide exchange yield); conditions: binding to HLA-A*02:01
Source text: Candidate peptides for T cell based therapies according to the present invention were further tested for their MHC binding capacity (affinity). The individual peptide-MHC complexes were produced by UV-ligand exchange, where a UV-sensitive peptide is cleaved upon UV-irradiation, and exchanged with the peptide of interest as analyzed. Only peptide candidates that can effectively bind and stabilize the peptide-receptive MHC molecules prevent dissociation of the MHC complexes. To determine the yield of the exchange reaction, an ELISA was performed based on the detection of the light chain (β2m) of stabilized MHC complexes. The assay was performed as generally described in Rodenko et al. (Rodenko et al., 2006).
96 well MAXISorp plates (NUNC) were coated over night with 2 ug/ml streptavidin in PBS at room temperature, washed 4× and blocked for 1 h at 37° C. in 2% BSA containing blocking buffer. Refolded HLA-A*02:01/MLA-001 monomers served as standards, covering the range of 15-500 ng/ml. Peptide-MHC monomers of the UV-exchange reaction were diluted 100 fold in blocking buffer. Samples were incubated for 1 h at 37° C., washed four times, incubated with 2 ug/ml HRP conjugated anti-β2m for 1 h at 37° C., washed again and detected with TMB solution that is stopped with […]. Absorption was measured at 450 nm. Candidate peptides that show a high exchange yield (preferably higher than 50%, most preferred higher than 75%) are generally preferred for a generation and production of antibodies or fragments thereof, and/or T cell receptors or fragments thereof, as they show sufficient avidity to the MHC molecules and prevent dissociation of the MHC complexes.
Table 11: MHC class I binding scores. Binding of HLA-class I restricted peptides to HLA-A*02:01 was ranged by peptide exchange yield: ≥10%=+; ≥20%=++; ≥50=+++; ≥75%=++++

Row | Substance | Peptide Exchange (MHC class I binding score, peptide exchange yield)
1 | 34 (YLPYIFPNI; listed as Homo sapiens) [compound 34] | “+++” (>50 = +++)
2 | 35 (FILPSSLYL; listed as Homo sapiens) [compound 35] | “+++” (>50 = +++)
3 | 36 (FILTHVDQL; listed as Homo sapiens) [compound 36] | “++++” (>75% = ++++)
4 | 37 (FIMEGGAMVL; listed as Homo sapiens) [compound 37] | “++++” (>75% = ++++)
5 | 38 (FIMEGGAMV; listed as Homo sapiens) [compound 38] | “+++” (>50 = +++)
6 | 39 (FLDALLTDV; listed as Homo sapiens) [compound 39] | “+++” (>50 = +++)
7 | 40 (FLDEDDMSL; listed as Homo sapiens) [compound 40] | “++” (>20% = ++)
8 | 41 (FLDPSLDPLL; listed as Homo sapiens) [compound 41] | “+++” (>50 = +++)
9 | 42 (FLEEGGVVTV; listed as Homo sapiens) [compound 42] | “+++” (>50 = +++)
10 | 43 (FLLGPEALSFA; listed as Homo sapiens) [compound 43] | “++++” (>75% = ++++)
11 | 44 (FLLSINDFL; listed as Homo sapiens) [compound 44] | “+++” (>50 = +++)
12 | 45 (FLPELPADLEA; listed as Homo sapiens) [compound 45] | “+++” (>50 = +++)
13 | 46 (YIIDSAQAV; listed as Homo sapiens) [compound 46] | “+++” (>50 = +++)
14 | 47 (FLSDQPEPYL; listed as Homo sapiens) [compound 47] | “++” (>20% = ++)
15 | 48 (FLSPQQPPLL; listed as Homo sapiens) [compound 48] | “+++” (>50 = +++)
16 | 49 (FLTDLFAQL; listed as Homo sapiens) [compound 49] | “++++” (>75% = ++++)
17 | 50 (FLFEPVVKAFL; listed as Homo sapiens) [compound 50] | “+++” (>50 = +++)
18 | 51 (FLVEAPHDWDL; listed as Homo sapiens) [compound 51] | “++++” (>75% = ++++)
19 | 52 (FLVETGFLHV; listed as Homo sapiens) [compound 52] | “++++” (>75% = ++++)
20 | 53 (FLWQHVELVL; listed as Homo sapiens) [compound 53] | “+++” (>50 = +++)

Row | Substance | Peptide Exchange (MHC class I binding score, peptide exchange yield)
21 | 55 (FMEPTLLML; listed as Homo sapiens) [compound 55] | “+++” (>50 = +++)
22 | 56 (FVFEAPYTL; listed as Homo sapiens) [compound 56] | “+++” (>50 = +++)
23 | 58 (YIQQGIFSV; listed as Homo sapiens) [compound 58] | “+++” (>50 = +++)
24 | 59 (FVFGDENGTVSL; listed as Homo sapiens) [compound 59] | “+++” (>50 = +++)
25 | 60 (FVLDHEDGLNL; listed as Homo sapiens) [compound 60] | “+++” (>50 = +++)
26 | 61 (FVYFIVREV; listed as Homo sapiens) [compound 61] | “+++” (>50 = +++)
27 | 62 (GIIDGSPRL; listed as Homo sapiens) [compound 62] | “+++” (>50 = +++)
28 | 63 (SLAHVAGCEL; listed as Homo sapiens) [compound 63] | “+++” (>50 = +++)
29 | 64 (KLLESVASA; listed as Homo sapiens) [compound 64] | “+++” (>50 = +++)
30 | 65 (GLDDMKANL; listed as Homo sapiens) [compound 65] | “++” (>20% = ++)
31 | 66 (SLAGGLDDMKA; listed as Homo sapiens) [compound 66] | “+++” (>50 = +++)
32 | 67 (GLDDVTVEV; listed as Homo sapiens) [compound 67] | “++” (>20% = ++)
33 | 68 (GLDQQFAGLDL; listed as Homo sapiens) [compound 68] | “+” (>10% = +)
34 | 70 (FVPDTPVGV; listed as Homo sapiens) [compound 70] | “+++” (>50 = +++)
35 | 71 (GLKHDIARV; listed as Homo sapiens) [compound 71] | “+++” (>50 = +++)
36 | 72 (GLLDAGKMYV; listed as Homo sapiens) [compound 72] | “+++” (>50 = +++)
37 | 73 (GLLEVISALQL; listed as Homo sapiens) [compound 73] | “+++” (>50 = +++)
38 | 74 (GLLRASFLL; listed as Homo sapiens) [compound 74] | “++” (>20% = ++)
39 | 75 (GLSIFAQDLRL; listed as Homo sapiens) [compound 75] | “++” (>20% = ++)
40 | 76 (GLLRIIPYL; listed as Homo sapiens) [compound 76] | “+++” (>50 = +++)

Results, then the substance that gave them:

Row | Peptide Exchange (MHC class I binding score, peptide exchange yield) | Substance
41 | “+++” (>50 = +++) | 78 (GLPSFLTEV; listed as Homo sapiens) [compound 78]
42 | “+++” (>50 = +++) | 79 (GLQAKIQEA; listed as Homo sapiens) [compound 79]
43 | “++” (>20% = ++) | 80 (VLIEDELEEL; listed as Homo sapiens) [compound 80]
44 | “+++” (>50 = +++) | 82 (GLQSGVDIGV; listed as Homo sapiens) [compound 82]
45 | “+++” (>50 = +++) | 83 (GQGEVLVYV; listed as Homo sapiens) [compound 83]
46 | “++” (>20% = ++) | 84 (GVMDVNTAL; listed as Homo sapiens) [compound 84]
47 | “++++” (>75% = ++++) | 85 (HLMLHTAAL; listed as Homo sapiens) [compound 85]
48 | “++” (>20% = ++) | 87 (HQIEAVDGEEL; listed as Homo sapiens) [compound 87]
49 | “+++” (>50 = +++) | 88 (ILDEIGADVQA; listed as Homo sapiens) [compound 88]
50 | “+++” (>50 = +++) | 89 (ILDFGTFQL; listed as Homo sapiens) [compound 89]
51 | “+++” (>50 = +++) | 90 (VIADLGLIRV; listed as Homo sapiens) [compound 90]
52 | “+++” (>50 = +++) | 91 (ILDLNTYNV; listed as Homo sapiens) [compound 91]
53 | “+++” (>50 = +++) | 92 (ILEPLNPLL; listed as Homo sapiens) [compound 92]
54 | “+++” (>50 = +++) | 93 (ILFNTQINI; listed as Homo sapiens) [compound 93]
55 | “+++” (>50 = +++) | 94 (ILFPLRFTL; listed as Homo sapiens) [compound 94]
56 | “++” (>20% = ++) | 95 (ILGYMAHEHKV; listed as Homo sapiens) [compound 95]
57 | “++” (>20% = ++) | 97 (LLFATQITL; listed as Homo sapiens) [compound 97]
58 | “+” (>10% = +) | 98 (SLIKYFLFV; listed as Homo sapiens) [compound 98]
59 | “+++” (>50 = +++) | 99 (ILIFHSVAL; listed as Homo sapiens) [compound 99]
60 | “+++” (>50 = +++) | 100 (ILNNEVFAI; listed as Homo sapiens) [compound 100]
61 | “++” (>20% = ++) | 103 (KLGGTPAPA; listed as Homo sapiens) [compound 103]
